# Measurements taken from publication PMC7690628 (Pharmaceuticals, 2020).
# B1: CYP2C19 (Homo sapiens) (protein)
# chain: MDPFVVLVLCLSCLLLLSIWRQSSGRGKLPPGPTPLPVIGNILQIDIKDVSKSLTNLSKIYGPVFTLYFGLERMVVLHGYEVVKEALIDLGEEFSGRGHFPLAERANRGFGIVFSNGKRWKEIRRFSLMTLRNFGMGKRSIEDRVQEEARCLVEELRKTKASPCDPTFILGCAPCNVICSIIFQKRFDYKDQQFLNLMEKLNENIRIVSTPWIQICNNFPTIIDYFPGTHNKLLKNLAFMESDILEKVKEHQESMDINNPRDFIDCFLIKMEKEKQNQQSEFTIENLVITAADLLGAGTETTSTTLRYALLLLLKHPEVTAKVQEEIERVIGRNRSPCMQDRGHMPYTDAVVHEVQRYIDLIPTSLPHAVTCDVKFRNYLIPKGTTILTSLTSVLHDNKEFPNPEMFDPRHFLDEGGNFKKSNYFMPFSAGKRICVGEGLARMELFLFLTFILQNFNLKSLIDPKDLDTTPVVNGFASVPPFYQLCFIPV
# Experiments:
# [1] = target: CYP3A4 (Homo sapiens, UniProt P08684); test: biochemical
# [2] = substrate: O=C(CCc1ccc(O)cc1)c1c(O)cc(O)cc1O; test: purified protein; details: heme
# CYP3A4, sequence (P08684 2-503): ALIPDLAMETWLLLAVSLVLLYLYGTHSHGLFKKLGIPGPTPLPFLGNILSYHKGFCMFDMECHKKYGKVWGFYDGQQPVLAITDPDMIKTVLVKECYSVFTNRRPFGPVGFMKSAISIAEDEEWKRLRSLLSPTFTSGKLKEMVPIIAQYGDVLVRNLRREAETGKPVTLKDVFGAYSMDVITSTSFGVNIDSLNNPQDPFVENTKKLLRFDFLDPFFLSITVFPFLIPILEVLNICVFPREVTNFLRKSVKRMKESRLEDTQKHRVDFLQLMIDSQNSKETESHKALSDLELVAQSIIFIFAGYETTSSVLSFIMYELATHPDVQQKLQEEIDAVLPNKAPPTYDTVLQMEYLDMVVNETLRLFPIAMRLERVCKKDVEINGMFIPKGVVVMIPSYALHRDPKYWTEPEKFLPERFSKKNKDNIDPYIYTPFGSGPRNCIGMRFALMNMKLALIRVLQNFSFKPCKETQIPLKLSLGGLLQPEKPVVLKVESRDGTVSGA
# CYP3A4, sequence (P00388 2-678 partner): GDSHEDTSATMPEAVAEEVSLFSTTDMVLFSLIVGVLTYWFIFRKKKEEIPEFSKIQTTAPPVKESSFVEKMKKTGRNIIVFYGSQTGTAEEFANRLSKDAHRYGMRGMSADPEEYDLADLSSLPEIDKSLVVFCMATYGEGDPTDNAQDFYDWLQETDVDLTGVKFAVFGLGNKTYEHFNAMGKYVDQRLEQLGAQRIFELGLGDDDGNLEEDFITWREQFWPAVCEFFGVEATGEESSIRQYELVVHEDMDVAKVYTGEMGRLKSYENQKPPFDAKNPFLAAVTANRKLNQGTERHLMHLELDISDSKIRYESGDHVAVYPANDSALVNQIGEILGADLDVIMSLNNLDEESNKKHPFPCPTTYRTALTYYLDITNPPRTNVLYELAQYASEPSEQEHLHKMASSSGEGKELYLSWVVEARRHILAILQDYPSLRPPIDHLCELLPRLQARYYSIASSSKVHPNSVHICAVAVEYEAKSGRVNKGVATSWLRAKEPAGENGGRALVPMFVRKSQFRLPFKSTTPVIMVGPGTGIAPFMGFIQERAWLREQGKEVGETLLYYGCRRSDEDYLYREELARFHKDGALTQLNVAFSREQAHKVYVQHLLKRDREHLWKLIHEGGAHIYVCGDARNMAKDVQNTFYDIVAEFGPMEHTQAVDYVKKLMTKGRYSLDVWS
Molecule,IC50 [1] [µM],Km [2] [µM],kcat [2] [s⁻¹],kcat/Km [2] [M⁻¹ s⁻¹]
"O=C(CCc1ccc(O)cc1)c1c(O)cc(O)cc1O [phloretin, 3-(4-hydroxyphenyl)-1-(2,4,6-trihydroxyphenyl)propan-1-one]",13,–,–,–
B1,–,208 ± 50,0.0967,467
